Measured values: patent publication US20040258656, “High affinity TGFbeta nucleic acid ligands and inhibitors” (published 2004)
Where a chain is given by its changes, count along the chain named.

T1: TGFβ2 (transforming growth factor beta 2) (Homo sapiens, UniProt P61812 SEQ:1-112)
T1 sequence: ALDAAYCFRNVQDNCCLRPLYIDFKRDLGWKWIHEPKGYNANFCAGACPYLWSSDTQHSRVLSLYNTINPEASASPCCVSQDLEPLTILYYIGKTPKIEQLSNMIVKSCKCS

B1: biased clone 2 (ssRNA)
RNA: GGGAGGACGAUGCGGAGGCGUUAUUAGAGAGUCUGUAUAGCUCUAGCCCCAGACGACUCGCCGA
modifications: 2'-F C and U
B2: biased clone 4 (ssRNA)
RNA: GGGAGGACGAUGCGGGGAGGGUAUUACAGAGUAUGUAUAGCUGUACUCCCAGACGACUCGCCCGA
modifications: 2'-F C and U
B3: biased clone 28 (ssRNA)
RNA: B2 RNA with G16A, A18G, G20A, G21A, U47C
modifications: 2'-F C and U
B4: biased clone 25 (ssRNA)
RNA: B2 RNA with A18G, G19C, G21U, A33C, C46G, U47C
modifications: 2'-F C and U
B5: biased clone 10 (ssRNA)
RNA: B2 RNA with A18G, G19C, G20A, G21U, A26U, A33C, C46G, U47C
modifications: 2'-F C and U
B6: biased clone 22 (ssRNA)
RNA: B2 RNA with G17U, A18G, G20A, G21U, A33C, U47C
modifications: 2'-F C and U
B7: biased clone 18 (ssRNA)
RNA: B2 RNA with G17U, A18G, G20A, G21U, A30C, A33C, G40U, U47C
modifications: 2'-F C and U
B8: biased clone 15 (ssRNA)
RNA: B2 RNA with G17U, A18G, G20A, G21A, A28G, A33C, U42C
modifications: 2'-F C and U
B9: biased clone 19 (ssRNA)
RNA: B2 RNA with G17C, G21U, A33C, C48G
modifications: 2'-F C and U
B10: biased clone 11 (ssRNA)
RNA: B2 RNA with G17C, A18G, G20A, G21U, U25C, A45G, U47C, C48G
modifications: 2'-F C and U
B11: biased clone 7 (ssRNA)
RNA: B2 RNA with G17A, A18G, G21U, C27U, A33C, U36C, G43A, U47C
modifications: 2'-F C and U
B12: biased clone 21 (ssRNA)
RNA: B2 RNA with G16A, A18G, G20A, G21U, A33C, U47C
modifications: 2'-F C and U
B13: biased clone 13 (ssRNA)
RNA: B2 RNA with G16U, A18U, G20A, G21A, C27G, A33C, G43C, U47C
modifications: 2'-F C and U
B14: biased clone 26 (ssRNA)
RNA: B2 RNA with A18U, G21U, G29C, C41G, U47C
modifications: 2'-F C and U
B15: biased clone 14 (ssRNA)
RNA: B2 RNA with G16C, A18G, G20A, G21U, A28U, A33C, U42A, U47C
modifications: 2'-F C and U
B16: biased clone 29 (ssRNA)
RNA: B2 RNA with G20U, G21U, A30C, A33C, G40U, C46G, U47C
modifications: 2'-F C and U
B17: biased clone 9 (ssRNA)
RNA: B2 RNA with G16U, G20A, A28G, U42C, U47C
modifications: 2'-F C and U
B18: biased clone 17 (ssRNA)
RNA: GGGAGGACGAUGCGGGGGGACUAUUAGUGAGUCUGUAUAGCACUACCCCCAGACGACUCGCCCGA
modifications: 2'-F C and U
B19: biased clone 20 (ssRNA)
RNA: GGGAGGACGAUGCGGGGUAGAUAUCACUGAGUCUGUAUAGCAGUGUCCCCAGACGACUCGCCCGA
modifications: 2'-F C and U

These binders were tested against T1, TGFβ2 (transforming growth factor beta …) (assay: filter). Settings: chain copies: 2 (inferred, homodimer).
GGAGGUUAUUACAGAGUCUGUAUAGCGUACUCC (ssRNA, 2'-F C and U) [21a-21(ML-114)] was tested, and the binding signal was 1000 x Kd of NX22284.
GGAGGUUAUUACAGAGUCUGUAUAGCUGUCUCC (ssRNA, 2'-F C and U) [21a-21(ML-115)] was tested, and the binding signal was 1000 x Kd of NX22284.
For GGAGGUUAUUACAGAGUCUGUAUAGCUGUACUCC (ssRNA, 2'-F C and U) [21a-21(ML-95)], the binding signal was 1 x Kd of NX22284.
GGUUAUUACAGAGUCUGUAUAGCUGUACUCC (ssRNA, 2'-F C and U; 3'-3' dT cap) [NX22303] was tested, and the binding signal was > 100 x Kd of NX22284.
In the case of GGAGGUUAUUACAGAUCUGUAUAGCUGUACUCC (ssRNA, 2'-F C and U) [21a-21(ML-120)], the binding signal is reported as 1000 x Kd of NX22284.
With GGAGGUUAUUACAGAGUUGUAUAGCUGUACUCC (ssRNA, 2'-F C and U) [21a-21(ML-128)] the binding signal was 1000 x Kd of NX22284.
GGAGGUUAUUAGAGUCUAUAGCCUCC (ssRNA, 2'-F C and U) [21a-21(ML-102)] was tested, and the binding signal was 1000 x Kd of NX22284.
In the case of GAGGUUAUUACAGAGUCUGUAUAGCUGUACUCC (ssRNA, 2'-F C and U; 3'-3' dT cap) [NX22301], the binding signal is reported as 1 x Kd of NX22284.
In the case of GGAGGUUAUUACAGAGUCUGUAUAGCUGUAC (ssRNA, 2'-F C and U) [21a-21(ML-105)], the binding signal is reported as 1000 x Kd of NX22284.
With GGAGGUUAUUACAGAGUCUGUAUAGCUGUA (ssRNA, 2'-F C and U) [21a-21(ML-96)] the binding signal was 1000 x Kd of NX22284.
With AGGUUAUUACAGAGUCUGUAUAGCUGUACUCC (ssRNA, 2'-F C and U; 3'-3' dT cap) [NX22302] the binding signal was 100 x Kd of NX22284.
With GGAGGUUAUUACAGAGUCUGUAUAGCUGUACUCCCC (ssRNA, 2'-F C and U) [21a-21(ML-94)] the binding signal was 0.5 x Kd of NX22284.
GGAGGUUAUACAGAGUCUGUAUAGCUGUACUCC (ssRNA, 2'-F C and U) [21a-21(ML-118)] was tested, and the binding signal was 1000 x Kd of NX22284.
GGAGAUAUUACAGAGUCUGUAUAGCUGUACUCC (ssRNA, 2'-F C and U) [21a-21(ML-134)] was tested, and the binding signal was 10 x Kd of NX22284.
For GGAGGUUAUUACAAGUUGUAUAGCUGUACUCC (ssRNA, 2'-F C and U) [21a-21(ML-122)], the binding signal was 1000 x Kd of NX22284.
With GGGGUUAUUACAGAGUCUGUAUAGCUGUACCC (ssRNA, 2'-F C and U) [21a-21(ML-130)] the binding signal was 2 x Kd of NX22284.
With GGAGGUUAUUACAGAGUCUGUAUAGCUGUACUCCCCA (ssRNA, 2'-F C and U) [NX22285] the binding signal was 2 x Kd of NX22284.
With GGAGGUUAUUACGAGUCUGUAUAGCGUACUCC (ssRNA, 2'-F C and U) [21a-21(ML-132)] the binding signal was 1000 x Kd of NX22284.
In the case of GGAGGUUAUUACAGAGUCUGUAUAGC (ssRNA, 2'-F C and U) [21a-21(ML-97)], the binding signal is reported as 1000 x Kd of NX22284.
GGAGGUUAUUAGAGUCUAUAGCUGUACUCC (ssRNA, 2'-F C and U) [21a-21(ML-101)] was tested, and the binding signal was 1000 x Kd of NX22284.
In the case of GGGGUUAUUCAGAGUCUGUAUAGCUGACCC (ssRNA, 2'-F C and U) [21a-21(ML-136)], the binding signal is reported as 10000 x Kd of NX22284.
With GGGGUUAUUAAGAGUCUGUAUAGCUUACCC (ssRNA, 2'-F C and U) [21a-21(ML-138)] the binding signal was 10000 x Kd of NX22284.
With GGAGGUUAUUACAGAGUCUGUAUAGCUACUCC (ssRNA, 2'-F C and U) [21a-21(ML-116)] the binding signal was 1000 x Kd of NX22284.

Biological target: T1, TGFβ2 (transforming growth factor beta …)
Assay: filter
Settings: chain copies: 2 (inferred, homodimer)
Remark: another data set of the same source
B1 was tested, and the binding signal was 0.6 x Kd of 21a-21.
With B2 the binding signal was 1.4 x Kd of 21a-21.
B3 was tested, and the binding signal was 1 x Kd of 21a-21.
In the case of B4, the binding signal is reported as 1 x Kd of 21a-21.
B5 was tested, and the binding signal was 0.3 x Kd of 21a-21.
For B6, the binding signal was 1.1 x Kd of 21a-21.
B7 was tested, and the binding signal was 1 x Kd of 21a-21.
In the case of B8, the binding signal is reported as 0.4 x Kd of 21a-21.
In the case of B9, the binding signal is reported as 1 x Kd of 21a-21.
B10 was tested, and the binding signal was 0.4 x Kd of 21a-21.
For B11, the binding signal was 0.3 x Kd of 21a-21.
B12 was tested, and the binding signal was 0.7 x Kd of 21a-21.
With B13 the binding signal was 0.2 x Kd of 21a-21.
With B14 the binding signal was 3.1 x Kd of 21a-21.
With B15 the binding signal was 0.4 x Kd of 21a-21.
With B16 the binding signal was 1 x Kd of 21a-21.
B17 was tested, and the binding signal was 0.3 x Kd of 21a-21.
B18 was tested, and the binding signal was 0.8 x Kd of 21a-21.
For B19, the binding signal was 5.7 x Kd of 21a-21.
